# Measured values from IntAct's records for PubMed 19893486.
# B1: CD44 antigen (Mus musculus), P15379 (parent)
# chain: MDKFWWHTAWGLCLLQLSLAHQQIDLNVTCRYAGVFHVEKNGRYSISRTEAADLCQAFNSTLPTMDQMKLALSKGFETCRYGFIEGNVVIPRIHPNAICAANHTGVYILVTSNTSHYDTYCFNASAPPEEDCTSVTDLPNSFDGPVTITIVNRDGTRYSKKGEYRTHQEDIDASNIIDDDVSSGSTIEKSTPEGYILHTYLPTEQPTGDQDDSFFIRSTLATIASTVHSKSHAAAQKQNNWIWSWFGNSQSTTQTQEPTTSATTALMTTPETPPKRQEAQNWFSWLFQPSESKSHLHTTTKMPGTESNTNPTGWEPNEENEDETDTYPSFSGSGIDDDEDFISSTIATTPRVSARTEDNQDWTQWKPNHSNPEVLLQTTTRMADIDRISTSAHGENWTPEPQPPFNNHEYQDEEETPHATSTTPNSTAEAAATQQETWFQNGWQGKNPPTPSEDSHVTEGTTASAHNNHPSQRITTQSQEDVSWTDFFDPISHPMGQGHQTESKDTDSSHSTTLQPTAAPNTHLVEDLNRTGPLSVTTPQSHSQNFSTLHGEPEEDENYPTTSILPSSTKSSAKDARRGGSLPTDTTTSVEGYTFQYPDTMENGTLFPVTPAKTEVFGETEVTLATDSNVNVDGSLPGDRDSSKDSRGSSRTVTHGSELAGHSSANQDSGVTTTSGPMRRPQIPEWLIILASLLALALILAVCIAVNSRRRCGQKKKLVINGGNGTVEDRKPSELNGEASKSQEMVHLVNKEPSETPDQCMTADETRNLQSVDMKIGV
# B2: Rho guanine nucleotide exchange factor TIAM2 (Mus musculus), Q6ZPF3 (parent)
# chain: MGNSESQYTFQGSKNHSNTVTGAKQKPCSLKIRSVHAKDEKSLHGWTHGSSGAGYKSRSLARSCLSHFKNHQPYATRLSGPTCKVSKGTTYSKHRANTPGNDFQGNSGAFLPENGFHYVDRESEESHITSNGHLLTCYGRKESLASTPPGEDHRSPRVLIKTLGKLDGCLRVEFHNGGNPHKGTSEDPSGPVRLLRYSPTLASETCPVRETRRHSAAGSPSSQRPSPTDSRLRSSKGSSLSSESSWYDSPWGNAGEVSEVEGSFLAPSTPDPSLPSSFPPSDTKKPFNQSSSLSSLRELYKDPNLGCRSPSGTCLSSNEYISSQVSLNNRVSFASDMDVPSRVDHRDPLHYSSFTLPCRKSKALTEDAAKKDTLKARMRRFSDWTGSLSRKKRKLQEPRSMEGSEYFDSHSDGLNAEGQVPAQTSSLLWSGGSAQTLPHRSESTHAISVDPLRQNIYENFMRELEMSRSNTEHVETSTETMESSSESVSSLEQLDLLFEKEQGVVRKAGWLFFKPLVTLQKERKLELVARRKWKQYWVTLKGCTLLFYETYGKNSTEQNSAPRCALFAEDSIVQSVPEHPKKEHVFCLSNSCGDVYLFQATSQTDLENWVTAIHSACASLFAKKHGKEDTVRLLKSQTRSLLQKIDMDSKMKKMAELQLSVVSDPKNRKAIENQIRQWEQNLEKFHMDLFRMRCYLASLQGGELPNPKSLLAATSRPSKLALGRLGVLSVSSFHALVCSRDDSTLRKRTLSLTQRGKSKKGIFSSLKGLDTLARKGREKRASITQMFDSSHSHGFLGTQLPQKSTNSNKAHDLHLYGSAVDSALRDSMWEVQTYVHFQDNEGVTVTIKPEHRVEDVLALVCKMRQLEPTHYGLQLRKVVDKSVEWCVPALYEYMQEQVYDEIEVFPLSVYDVQLTKTGDMTDFGFAVTVQVDEHQHLNRIFISDVLPDSLAYGGGLRKGNEITSLNGEPVSDLDIQQMEALFSEKSVGLTLVARPVTTRRTLCASWSDSDLFSRDQKSLPPSPNQSQLLEEFLDNFRKTATSDFSNVPEITTGLKRSQTEGTLDQVPHREKMEQTFLSADQIAELCRDLNNTHTNSMEAPTESHDPPPRPLARHLSDADRLRKVIQELVDTEKSYVKDLSCLFELYLEPLQNETFLTQDEMESLFGSLPEMLEFQKVFLETLEDAISASSDFSVLETPSQFRKLLFSLGGSFLYYADHFKLYSGFCANHIKVQRVLERAKTDKAFKAFLDARNPTKQHSSTLESYLIKPVQRVLKYPLLLKELVSLTDHESEEHYHLTEALKAMEKVASHINEMQKIYEDYGMVFDQLVAEQSGTEKEVTELSMGELLMHSTVSWLNPFLSLGKARKDIELTVFVFKRAVILVYKENCKLKKKLPSNSRPAHNSADLDPFKFRWLIPISALQVRLGNTAGTENNSTWELIHTKSEIEGRPETIFQLCCSDSENKTSIVKVIRSILRENFRRHIKCELPLEKTCKDRLVPLKNRVPVSAKLASSRSLKGLRTSSSSEWPSEPSKGNSLDSDECSLSSGTQSSGCPVAESRRDSKSTELEKDAQEGLAEFPDGLIKESDILSDEDEDFHHPLKQGSPTKDIEIQFQRLKISEESDVHPVGQQPLTESGEQPKLVRGHFCPIKRKANSTKRGRGTLLKAQTRHQSLDSHPETASIDLNLVLEREFSVQSLTSVVNEEGFYETQSHGKS
# B3: Rho guanine nucleotide exchange factor TIAM1 (Mus musculus), Q60610 (parent)
# chain: MGNAESQNVDHEFYGEKHASLGRKHTSRSLRLSHKTRRTRHASSGKAIHRNSEVSTRSSSTPSIPQSLAENGLEPFSQEGALDDFGDPIWVDRVDMGLRPVSYTDSSVTPSVDGSIVLTAASVQSMPDSEESRLYGDDATYLAEGGRRQCPYTSNGPTFMETASFKKKRSKSADIWREDSLEFSLSDLSQEHLTSNEEILGSAEEKDCEEARGMETEASPRQLSTCQRANSLGDLYAQKNSGVKANGGPRNRFSSYCRNLVSDIPDLAKHKMPPAAAEETPPYSNYNTLPCRKSHCLSEGATNPQISLSKSMQGRRAKTTQDVNTGEGSEFADSGIEGATTDTDLLSRRSNATNSSYSPPTGRAFVGSDSGSSSTGDRARQGVYENFRRELEMSTTNSESLEEAGSAHSDEQSSGTLSSPGQSDILLTAAQGTVRKAGALAVKNFLVHKKNKKVESATRRKWKHYWVSLKGCTLFFYETDGRSGIDHNSVPKHAVWVENSIVQAVPEHPKKDFVFCLSNSLGDAFLFQTTSQTELENWITAIHSACAAAVARHHHKEDTLRLLKSEIKKLEQKIDMDEKMKKMGEMQLSSVTDSKKKKTILDQIFVWEQNLEQFQMDLFRFRCYLASLQGGELPNPKRLLAFASRPTKVAMGRLGIFSVSSFHALVAARTGEIGVRRRTQAMSRSASKRRSRFSSLWGLDTTSKKKQGRPTINQVFGEGTDAVKRSLEGIFDDTVPDGKREKEVVLPSVHQHNPDCDIWVHEYFTPSWFCLPNNQPALTVVRPGDTARDTLELICKTHQLDHSAHYLRLKFLMENRVQFYIPQPEEDIYELLYKEIEICPKVTQNIHIEKSDAAADNYGFLLSSVDEDGIRRLYVNSVKETGLASKKGLKAGDEILEINNRAAGTLNSSMLKDFLSQPSLGLLVRTYPEPEGGVELLENPPHRVDGPVDLGESPLAFLTSNPGHSLSSEQGSSAETAPEEGEGPDLESSDETDHSSKSTEQVAAFCRSLHEMSPSDSSPSPQDATSPQLATTRQLSDADKLRKVICELLETERTYVKDLNCLMERYLKPLQKETFLTQDELDVLFGNLTEMVEFQVEFLKTLEDGVRLVPDLEKLEKVDQFKKVLFSLGGSFLYYADRFKLYSAFCASHTKVPKVLVKAKTDTAFKAFLDAQNPRQQHSSTLESYLIKPIQRVLKYPLLLRELFALTDAESEEHYHLDVAIKTMNKVASHINEMQKIHEEFGAVFDQLIAEQTGEKKEVADLSMGDLLLHTSVIWLNPPASLGKWKKEPELAAFVFKTAVVLVYKDGSKQKKKLVGSHRLSIYEEWDPFRFRHMIPTEALQVRALPSADAEANAVCEIVHVKSESEGRPERVFHLCCSSPESRKDFLKSVHSILRDKHRRQLLKTESLPSAQQYVPFGGKRLCALKGARPAMSRAVSAPSKSLGRRRRRLARNRFTIDSDAISASSPEKEPQQPAGGGDTDRWVEEQFDLAQYEEQDDIKETDILSDDDEFCESLKGASVDRDLQEQLQAASISQRARGRRTLDSHASRMTQLKKQAALSGINGGLESASEEVIWVRREDFAPSRKLNTEI
# B4: Rho guanine nucleotide exchange factor TIAM2 (Mus musculus), Q6ZPF3 (parent)
# chain: B2 chain
# partner: B1 chain
# Variants of: B1
# Conditions: with tiam1_mouse Tiam1, Q60610
row,effect of a mutation on the interaction,Variant
1,disrupting interaction,C760S

# Variants of: B1
# Conditions: with tiam1_mouse Tiam1, Q60610
# Remark: another data set of the same source
row,effect of a mutation on the interaction,Variant
1,decreasing interaction,P753A

# Variants of: B1
# Conditions: with tiam1_mouse Tiam1, Q60610
# Remark: another data set of the same source
row,effect of a mutation on the interaction,Variant
1,decreasing interaction,T762A

# Variants of: B1
# Conditions: with tiam1_mouse Tiam1, Q60610
# Remark: another data set of the same source
row,effect of a mutation on the interaction,Variant
1,disrupting interaction,E752K

# Variants of: B1
# Conditions: with tiam1_mouse Tiam1, Q60610
# Remark: another data set of the same source
row,effect of a mutation on the interaction,Variant
1,disrupting interaction,E755K

# Variants of: B1
# Conditions: with tiam1_mouse Tiam1, Q60610
# Remark: another data set of the same source
row,effect of a mutation on the interaction,Variant
1,decreasing interaction,S754A

# Variants of: B2
# Conditions: with pard3_human PARD3, Q8TEW0
# Target sequence in this assay (Q8TEW0 whole entry): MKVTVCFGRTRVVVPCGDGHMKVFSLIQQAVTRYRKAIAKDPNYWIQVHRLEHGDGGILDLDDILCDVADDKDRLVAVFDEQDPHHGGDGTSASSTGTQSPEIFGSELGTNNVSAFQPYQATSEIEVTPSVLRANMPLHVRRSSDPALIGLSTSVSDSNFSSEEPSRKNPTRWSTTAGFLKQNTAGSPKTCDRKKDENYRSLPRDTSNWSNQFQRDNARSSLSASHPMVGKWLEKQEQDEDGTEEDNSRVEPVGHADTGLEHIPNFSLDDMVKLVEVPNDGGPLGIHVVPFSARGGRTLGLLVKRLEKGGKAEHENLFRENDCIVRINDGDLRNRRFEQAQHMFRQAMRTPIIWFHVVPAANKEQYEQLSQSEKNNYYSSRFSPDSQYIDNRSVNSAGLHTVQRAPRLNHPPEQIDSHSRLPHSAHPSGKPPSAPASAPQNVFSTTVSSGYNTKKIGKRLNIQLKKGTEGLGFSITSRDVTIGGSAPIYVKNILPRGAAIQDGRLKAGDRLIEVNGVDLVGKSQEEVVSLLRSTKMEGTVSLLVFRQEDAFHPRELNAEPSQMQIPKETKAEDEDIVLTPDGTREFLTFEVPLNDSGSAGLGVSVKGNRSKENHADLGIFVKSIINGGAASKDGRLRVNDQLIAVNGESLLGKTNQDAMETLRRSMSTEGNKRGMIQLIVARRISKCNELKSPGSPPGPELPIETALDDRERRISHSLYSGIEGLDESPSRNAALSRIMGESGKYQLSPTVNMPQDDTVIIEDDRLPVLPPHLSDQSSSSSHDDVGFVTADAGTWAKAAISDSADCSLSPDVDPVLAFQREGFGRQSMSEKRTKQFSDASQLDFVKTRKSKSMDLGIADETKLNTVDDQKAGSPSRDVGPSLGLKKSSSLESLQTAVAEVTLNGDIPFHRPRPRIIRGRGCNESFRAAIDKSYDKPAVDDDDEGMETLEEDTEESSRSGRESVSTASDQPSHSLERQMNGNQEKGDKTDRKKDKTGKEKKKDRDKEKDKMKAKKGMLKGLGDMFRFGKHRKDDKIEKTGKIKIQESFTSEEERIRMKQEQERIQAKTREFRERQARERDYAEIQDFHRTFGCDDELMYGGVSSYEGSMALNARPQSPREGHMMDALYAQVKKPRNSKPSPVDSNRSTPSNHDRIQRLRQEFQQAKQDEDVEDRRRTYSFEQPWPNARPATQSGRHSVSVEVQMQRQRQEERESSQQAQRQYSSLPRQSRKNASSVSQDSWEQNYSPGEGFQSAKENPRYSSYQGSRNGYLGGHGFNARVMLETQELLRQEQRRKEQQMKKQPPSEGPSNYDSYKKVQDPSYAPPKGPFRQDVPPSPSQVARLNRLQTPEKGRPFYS
row,effect of a mutation on the interaction,Variant
1,decreasing interaction,R693A
2,decreasing interaction,R716A

# Variants of: B2
# Conditions: with PARD3, Q8TEW0-2
# Chain of PARD3, Q8TEW0-2 (Q8TEW0 other isoform, or with tags, fused parts or gaps): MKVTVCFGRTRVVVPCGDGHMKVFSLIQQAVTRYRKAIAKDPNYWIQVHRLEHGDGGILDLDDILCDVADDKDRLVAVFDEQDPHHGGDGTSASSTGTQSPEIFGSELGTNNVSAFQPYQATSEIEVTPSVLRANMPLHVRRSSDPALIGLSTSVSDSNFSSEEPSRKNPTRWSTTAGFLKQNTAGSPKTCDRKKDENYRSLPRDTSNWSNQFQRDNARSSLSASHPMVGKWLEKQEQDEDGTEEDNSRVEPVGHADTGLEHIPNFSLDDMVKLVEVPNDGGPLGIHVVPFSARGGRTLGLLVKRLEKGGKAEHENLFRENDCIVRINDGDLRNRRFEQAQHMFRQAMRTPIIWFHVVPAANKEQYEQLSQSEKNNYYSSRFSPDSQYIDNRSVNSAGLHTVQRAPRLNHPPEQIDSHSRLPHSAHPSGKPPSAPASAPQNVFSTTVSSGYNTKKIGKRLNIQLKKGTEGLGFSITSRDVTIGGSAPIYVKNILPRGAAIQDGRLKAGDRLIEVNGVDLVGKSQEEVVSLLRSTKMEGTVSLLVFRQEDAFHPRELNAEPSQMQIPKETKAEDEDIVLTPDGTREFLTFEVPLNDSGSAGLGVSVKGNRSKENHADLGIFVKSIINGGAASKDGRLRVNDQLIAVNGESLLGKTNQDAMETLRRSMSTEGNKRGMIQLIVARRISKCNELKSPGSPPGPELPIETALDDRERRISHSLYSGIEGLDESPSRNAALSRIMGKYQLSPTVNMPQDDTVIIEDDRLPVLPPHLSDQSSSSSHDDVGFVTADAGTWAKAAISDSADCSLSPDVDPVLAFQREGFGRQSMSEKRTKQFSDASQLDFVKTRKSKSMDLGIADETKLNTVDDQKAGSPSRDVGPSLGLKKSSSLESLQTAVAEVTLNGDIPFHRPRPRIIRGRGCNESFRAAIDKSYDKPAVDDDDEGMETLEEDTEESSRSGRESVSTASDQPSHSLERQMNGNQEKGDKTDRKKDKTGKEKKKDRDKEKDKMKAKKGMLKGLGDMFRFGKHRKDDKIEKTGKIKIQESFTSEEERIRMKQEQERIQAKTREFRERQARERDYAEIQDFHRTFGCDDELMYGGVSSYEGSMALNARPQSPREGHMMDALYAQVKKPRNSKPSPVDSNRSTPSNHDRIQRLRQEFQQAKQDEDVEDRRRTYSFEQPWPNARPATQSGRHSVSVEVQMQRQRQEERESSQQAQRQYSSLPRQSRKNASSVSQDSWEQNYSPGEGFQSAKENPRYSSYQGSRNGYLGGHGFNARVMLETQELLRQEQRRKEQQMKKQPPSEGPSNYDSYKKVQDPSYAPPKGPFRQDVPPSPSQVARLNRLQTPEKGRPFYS
row,effect of a mutation on the interaction,Variant
1,decreasing interaction,R693A

# Variants of: B2
# Conditions: with PARD3, Q8TEW0-2
# Remark: another data set of the same source
row,effect of a mutation on the interaction,Variant
1,decreasing interaction,K627A

# Variants of: B2
# Conditions: with PARD3, Q8TEW0-2
# Remark: another data set of the same source
row,effect of a mutation on the interaction,Variant
1,decreasing interaction,R716A

# Variants of: B2
# Conditions: with PARD3, Q8TEW0-2
# Remark: another data set of the same source
row,effect of a mutation on the interaction,Variant
1,decreasing interaction,K624A

# Variants of: B2
# Conditions: with PARD3, Q8TEW0-2
# Remark: another data set of the same source
row,effect of a mutation on the interaction,Variant
1,decreasing interaction,R632A

# Variants of: B3
# Conditions: with pard3_human PARD3, Q8TEW0
# Target sequence in this assay (Q8TEW0 whole entry): as the sequence (Q8TEW0 whole entry) above
row,effect of a mutation on the interaction,Variant
1,decreasing interaction,R645A
2,decreasing interaction,R622A

# Variants of: B4
# Conditions: with cd44_mouse Cd44, P15379
row,effect of a mutation on the interaction,Variant
1,decreasing interaction,R632A

# Variants of: B4
# Conditions: with cd44_mouse Cd44, P15379
# Remark: another data set of the same source
row,effect of a mutation on the interaction,Variant
1,decreasing interaction,K627A

# Variants of: B4
# Conditions: with cd44_mouse Cd44, P15379
# Remark: another data set of the same source
row,effect of a mutation on the interaction,Variant
1,decreasing interaction,R693A

# Variants of: B4
# Conditions: with cd44_mouse Cd44, P15379
# Remark: another data set of the same source
row,effect of a mutation on the interaction,Variant
1,decreasing interaction,K624A

# Variants of: B4
# Conditions: with cd44_mouse Cd44, P15379
# Remark: another data set of the same source
row,effect of a mutation on the interaction,Variant
1,decreasing interaction,R716A
